The supplement of paper PMC7877785
± gives the uncertainty stated by the source.

Assay: self-splicing fitness, log relative to wild type (ln ratio); higher = more splicing; Tetrahymena group I intron in knt gene, E. coli kanamycin selection, DiMSum; sequences stand for … in CUCUCU…GGAGGGAAAAGUUAUCAGGCAUGCACCUGGUAGCUAGUCUUUAAACCAAUAGAUUGCAUCGGUUUAAAAGGCAAGACCGUCAAAUUGCGGGAAAGGGGUCAACAGCCGUUCAGUACCAAGUCUCAGGGGAAACUUUGAGAUGGCCUUGCAAAGGGUAUGGUAAUAAGCUGACGGACAUGGUCCUAACCACGCAGCCAAGUCCUAAGUCAACAGAUCUUCUGUUGAUAUGGAUGCAGUUCACAGACUAAAUGUCGGUCGGGGAAGAUGUAUUCUUCUCAUAAGAUAUAGUCGGACCUCUCCUUAAUGGGAGCUAGCGGAUGAAGUGAUGCAACACUGGAGCCGCUGGGAACUAAUUUGUAUGCGAAAGUAUAUUGAUUAGUUUUGGAGUACUCGUGGUCG
In short: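 Colonies from six replicate transformations of E. coli BL21(DE3) were pooled and amplicon-sequenced on an Illumina HiSeq 2500. The library placed an intron with all eight P1ex-region nucleotides randomised inside the knt kanamycin-resistance gene on pET-22b(+), and cells grew overnight at 37°C or 30°C on LB agar with or without 25 μg/mL kanamycin (plus 100 μg/mL carbenicillin, 50 μM IPTG, 0.2% rhamnose). Fitness is the DiMSum error-weighted combination of wild-type-normalised replicate fold changes, kanamycin versus none.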

Row | Sequence | self-splicing fitness (ln) (30 °C) | self-splicing fitness (ln) (37 °C)
1 | CUCCAGCAAUAUUACGCACG | -1.52 ± 0.13 | -1.12 ± 0.18
2 | AUUGAGCAAUAUUACGUCCG | -2.58 ± 0.16 | -2.91 ± 0.48
3 | UUCCAGCAAUAUUACGUUCU |  | -3.34 ± 0.31
4 | GCACAGCAAUAUUACGAUGU | -2.05 ± 0.079 | -0.389 ± 0.088
5 | AACGAGCAAUAUUACGACGA | -2.08 ± 0.17 | -0.282 ± 0.14
6 | CGGGAGCAAUAUUACGUUAG | -3.18 ± 0.26 | -1.9 ± 0.29
7 | CUGAAGCAAUAUUACGUUGG | -2.84 ± 0.13 | -1.58 ± 0.13
8 | AAAUAGCAAUAUUACGAGAG | -4.01 ± 0.3 | -2.49 ± 0.28
9 | GAAGAGCAAUAUUACGAAAU | -3.79 ± 0.24 | -1.95 ± 0.23
10 | UCCGAGCAAUAUUACGUAGC | -3.33 ± 0.23 | -2.14 ± 0.28
11 | UCUCAGCAAUAUUACGUACA | -1.81 ± 0.21 | -0.374 ± 0.15
12 | CACUAGCAAUAUUACGCCAA | -2.23 ± 0.16 | -2.89 ± 0.24
13 | GAGUAGCAAUAUUACGUUUU | -2.6 ± 0.22 | -2.12 ± 0.24
14 | CCUCAGCAAUAUUACGAAGA | -3.71 ± 0.3 | -2.31 ± 0.25
15 | UGCUAGCAAUAUUACGGAGA |  | -2 ± 0.22
16 | AUUGAGCAAUAUUACGCUCC | -1.83 ± 0.44 | 
17 | GGUAAGCAAUAUUACGCUGA | -2.82 ± 0.28 | -0.411 ± 0.22
18 | GGCAAGCAAUAUUACGAAGC | -1.69 ± 0.27 | -0.628 ± 0.47
19 | AUAGAGCAAUAUUACGUCUA | -0.2 ± 0.076 | 0.816 ± 0.11
20 | CGUUAGCAAUAUUACGAAGG | -1.69 ± 0.1 | -0.895 ± 0.11
21 | UCUUAGCAAUAUUACGACGU | -0.316 ± 0.1 | -0.505 ± 0.13
22 | GCCGAGCAAUAUUACGACCA | -2.62 ± 0.3 | -2.31 ± 0.31
23 | GCGAAGCAAUAUUACGAAUA | -2.34 ± 0.19 | -1.73 ± 0.24
24 | UAUUAGCAAUAUUACGCCGG | -0.99 ± 0.22 | -0.907 ± 0.26
25 | UAUAAGCAAUAUUACGGUUC | -3.49 ± 0.37 | -1.05 ± 0.33
26 | ACCCAGCAAUAUUACGACGG | -1.39 ± 0.078 | -0.9 ± 0.086

Row | Sequence | self-splicing fitness (ln) (30 °C) | self-splicing fitness (ln) (37 °C)
27 | CAGCAGCAAUAUUACGUUAA | -3.01 ± 0.11 | -1.66 ± 0.1
28 | GGGUAGCAAUAUUACGCUAC | -1.81 ± 0.34 | 
29 | GGGAAGCAAUAUUACGCUGG | -2.97 ± 0.23 | -1.73 ± 0.18
30 | CAUUAGCAAUAUUACGUGGA | -3.35 ± 0.19 | -2.13 ± 0.13
31 | CCCCAGCAAUAUUACGUGGG | -3.83 ± 0.12 | -2.81 ± 0.14
32 | UCGCAGCAAUAUUACGACGC | -1.81 ± 0.48 | 
33 | GCUCAGCAAUAUUACGACGG | -2.33 ± 0.18 | -1.3 ± 0.16
34 | ACACAGCAAUAUUACGAGGA | -2.42 ± 0.2 | -1.66 ± 0.18
35 | CCUCAGCAAUAUUACGGAUU | -4.3 ± 0.39 | -2.56 ± 0.22
36 | UGCAAGCAAUAUUACGCAAC | -1.9 ± 0.26 | -2.11 ± 0.28
37 | GGCCAGCAAUAUUACGCUGA | -0.636 ± 0.063 | -0.331 ± 0.074
38 | GAGUAGCAAUAUUACGCAGC |  | -2.81 ± 0.34
39 | UUUAAGCAAUAUUACGUGCG | -0.659 ± 0.088 | -0.486 ± 0.11
40 | AGCCAGCAAUAUUACGAAAC | -3.51 ± 0.48 | -1.38 ± 0.26
41 | UAGCAGCAAUAUUACGGCCG | -0.163 ± 0.071 | 0.0112 ± 0.085
42 | AACGAGCAAUAUUACGCGGG | -3.64 ± 0.42 | -2.32 ± 0.22
43 | GCGUAGCAAUAUUACGUGGU | -3.53 ± 0.19 | -3.64 ± 0.22
44 | CAACAGCAAUAUUACGAGAG | -3.41 ± 0.13 | -1.91 ± 0.11
45 | UCCAAGCAAUAUUACGGAUU | -4.35 ± 0.2 | -3.1 ± 0.18
46 | CGAGAGCAAUAUUACGCAAC | -1.2 ± 0.34 | -2.34 ± 0.35
47 | ACUUAGCAAUAUUACGAUUA | -1.05 ± 0.13 | -1.55 ± 0.13
48 | UCAGAGCAAUAUUACGUUAG | -3.86 ± 0.42 | -3.25 ± 0.35
49 | UCCAAGCAAUAUUACGUGUA | -0.565 ± 0.043 | 0.504 ± 0.057
50 | CGUUAGCAAUAUUACGUUCC |  | -1.47 ± 0.45
51 | CUACAGCAAUAUUACGAACG | 0.241 ± 0.11 | 0.6 ± 0.14
52 | CGGUAGCAAUAUUACGUCCG | -2.86 ± 0.3 | -2.02 ± 0.36

Row | Sequence | self-splicing fitness (ln) (30 °C) | self-splicing fitness (ln) (37 °C)
53 | CGCGAGCAAUAUUACGCAUA | -1.87 ± 0.32 | -2.14 ± 0.43
54 | GCACAGCAAUAUUACGUAUC | -0.923 ± 0.061 | -0.833 ± 0.066
55 | GGUAAGCAAUAUUACGUAGU | -1.48 ± 0.11 | -1.46 ± 0.17
56 | CGACAGCAAUAUUACGCCCA | -1.56 ± 0.11 | -0.725 ± 0.11
57 | CCUGAGCAAUAUUACGGUUC | -3.21 ± 0.23 | -3.06 ± 0.4
58 | AGGCAGCAAUAUUACGACUG | -1.99 ± 0.14 | -2.18 ± 0.18
59 | CAGCAGCAAUAUUACGGCUU | -0.00706 ± 0.07 | 0.453 ± 0.088
60 | GAAAAGCAAUAUUACGCGGU | -3.4 ± 0.21 | -1.21 ± 0.16
61 | CCUCAGCAAUAUUACGAUAC | -3.21 ± 0.26 | -3.08 ± 0.47
62 | GUGGAGCAAUAUUACGGUAC | -2.81 ± 0.14 | -1.71 ± 0.15
63 | GAGCAGCAAUAUUACGUUUA | -1.17 ± 0.092 | -1 ± 0.097
64 | UUCCAGCAAUAUUACGGCGG | -3.09 ± 0.17 | -2.72 ± 0.27
65 | UGGUAGCAAUAUUACGUGUC | -2.13 ± 0.46 | 
66 | CCCGAGCAAUAUUACGCCAA | -3.35 ± 0.31 | -2.12 ± 0.26
67 | AGUGAGCAAUAUUACGCAUA | -4.2 ± 0.43 | -2.56 ± 0.29
68 | GGGUAGCAAUAUUACGUGAG | -0.474 ± 0.074 | 0.074 ± 0.11
69 | CAGGAGCAAUAUUACGACUA | 0.224 ± 0.31 | -0.98 ± 0.34
70 | CCGUAGCAAUAUUACGAACU | -3.64 ± 0.47 | -1.14 ± 0.28
71 | UUCUAGCAAUAUUACGUAGC |  | -2.19 ± 0.31
72 | CCAAAGCAAUAUUACGUACU | -3.69 ± 0.2 | -2.76 ± 0.27
73 | UAACAGCAAUAUUACGUGCA | -0.792 ± 0.063 | -0.445 ± 0.098
74 | CGCUAGCAAUAUUACGAUGU | -2.56 ± 0.11 | -1 ± 0.11
75 | AACGAGCAAUAUUACGAGGG | -3.03 ± 0.36 | -2.35 ± 0.29
76 | GUACAGCAAUAUUACGCGAA | -2.24 ± 0.13 | -2.22 ± 0.14
77 | ACGUAGCAAUAUUACGCUAU | -4.59 ± 0.34 | -3.11 ± 0.35
78 | ACUGAGCAAUAUUACGUAUC |  | -2.99 ± 0.44
